pEC50: −log10 of the molar value.
Key:
[1] = biological target: N-MBP-ORF3-A647 (not stated | Hepatitis E virus genotype 1) (UniProt O90299); assay: MST
[2] = biological target: N-MBP-ORF3-A647 (not stated | Hepatitis E virus genotype 1) (UniProt O90299); assay: MST; pH 7
[3] = biological target: N-MBP-ORF3-A647 (not stated | Hepatitis E virus genotype 1) (UniProt O90299); assay: MST; as a7 but at pH 6.0 (pH series), 30 °C
[4] = biological target: N-MBP-ORF3-A647 (not stated | Hepatitis E virus genotype 1) (UniProt O90299); assay: MST; as a7 but at pH 8.0 (pH series), 30 °C
[5] = biological target: N-MBP-ORF3-A647 (not stated | Hepatitis E virus genotype 1) (UniProt O90299); assay: MST; as a7 but at 35 °C (temperature series), pH 7
[6] = biological target: N-MBP-ORF3-A647 (not stated | Hepatitis E virus genotype 1) (UniProt O90299); assay: MST; as a7 but at 37 °C (temperature series), pH 7
[7] = biological target: N-MBP-ORF3-A647 (not stated | Hepatitis E virus genotype 1) (UniProt O90299); assay: MST; as a7 but at 41 °C (temperature series), pH 7

N-MBP-Plp (domain or fragment)
pEC50 [1]: 9.52 | pEC50 [2]: 8.82 | pEC50 [3]: 7.72 | pEC50 [4]: 8.22 | pEC50 [5]: 8.55 | pEC50 [6]: 7.80 | pEC50 [7]: 7.72

N-MBP-X (domain or fragment)
pEC50 [1]: 8.25

N-MBP-Met (domain or fragment)
pEC50 [1]: 7.47

N-MBP-Pvx (domain or fragment)
pEC50 [1]: 8.80

N-MBP-Hel (domain or fragment)
pEC50 [1]: 7.06

Reference: PMC4604457
